Data on 9 sequences can be found in the Immune Epitope Database (IEDB).

The target of one test is HLA-B*07:02. Briefly: IEDB peptide-MHC binding, purified MHC/direct/fluorescence; filed as Kd, often an IC50 or EC50 that approximates it; ≥ and ≤ were set here for values at or beyond the usual limits of such assays.
For test [1], the target named is HLA-B*15:01. The test is described as above.
Another test concerns the target HLA-B*27:05. Described as above.
Test [2] concerns the target HLA-A*02:01. The description is as above.
The next test concerns the target HLA-A*24:02. Described as above.
Another test concerns the target HLA-B*40:01. The description is as above.
A further test addresses HLA-A*03:01. Described as above.
In the next test the target is HLA-B*58:01. The test is described as above.
The target in a further test is HLA-B*44:02. Described as above.
For another test, the target named is HLA-B*08:01. Described as above.
Test [3] has as its target HLA-A*01:01. The description is as above.
Test [4] has as its target HLA-A*02:01. Put plainly: IEDB peptide-MHC binding, purified MHC/competitive/fluorescence; filed as Kd, often an IC50 or EC50 that approximates it; ≥ and ≤ were set here for values at or beyond the usual limits of such assays.
For another test, the target named is HLA-C*04:01. Put plainly: IEDB peptide-MHC binding, purified MHC/direct/fluorescence; filed as Kd, often an IC50 or EC50 that approximates it; ≥ and ≤ were set here for values at or beyond the usual limits of such assays.
Another test concerns the target HLA-C*12:03. The description is as above. The following applies: source organism: Vaccinia virus WR.
A further test addresses HLA-C*06:02. The test is described as above. The following applies: source organism: Vaccinia virus WR.
The next test concerns the target HLA-C*15:02. Described as above. The note with it: source organism: Vaccinia virus WR.
In a further test the target is HLA-C*08:02. Described as above. The note with it: source organism: Vaccinia virus WR.
The next test concerns the target HLA-A*02:06. Put plainly: IEDB peptide-MHC binding, purified MHC/competitive/fluorescence; filed as Kd, often an IC50 or EC50 that approximates it; ≥ and ≤ were set here for values at or beyond the usual limits of such assays. The note with it: source organism: Orthomarburgvirus marburgense.
In the next test the target is HLA-B*35:01. The test is described as above. The note with it: source organism: Orthomarburgvirus marburgense.
In test [5] the target is HLA-B*15:01. The test is described as above. The following applies: source organism: Orthomarburgvirus marburgense.
Another test concerns the target HLA-B*18:01. The description is as above. The note with it: source organism: Orthomarburgvirus marburgense.
For another test, the target named is HLA-A*26:02. The description is as above. The note with it: source organism: Orthomarburgvirus marburgense.
The target in the next test is HLA-B*08:03. Put plainly: IEDB peptide-MHC binding, purified MHC/direct/fluorescence; filed as Kd, often an IC50 or EC50 that approximates it; ≥ and ≤ were set here for values at or beyond the usual limits of such assays. The following applies: source organism: Ravn virus - Ravn, Kenya, 1987.
In a further test the target is HLA-A*23:01. The description is as above. The following applies: source organism: Marburg virus - Musoke, Kenya, 1980.
For the next test, the target named is HLA-A*26:03. The description is as above. The following applies: source organism: Ravn virus - Ravn, Kenya, 1987.
The target of the next test is HLA-B*15:17. Described as above. The following applies: source organism: Marburg virus - Musoke, Kenya, 1980.
Another test concerns the target HLA-A*24:03. The description is as above. The note with it: source organism: Marburg virus - Musoke, Kenya, 1980.
In another test the target is HLA-A*31:01. The description is as above.
In another test the target is HLA-A*11:01. Described as above.
A further test deals with HLA-A*68:02. The description is as above. The note with it: source organism: Marburg virus - Musoke, Kenya, 1980.
Test [6] addresses HLA-B*57:01. Described as above. The following applies: source organism: Marburg virus - Musoke, Kenya, 1980.
Another test addresses HLA-A*69:01. Described as above. The note with it: source organism: Marburg virus - Musoke, Kenya, 1980.
In the next test the target is HLA-C*05:01. The test is described as above. The note with it: source organism: Escherichia coli B171.
A further test has as its target HLA-A*80:01. The test is described as above.
A further test addresses HLA-A*32:01. Briefly: IEDB peptide-MHC binding, purified MHC/competitive/radioactivity; filed as Kd, often an IC50 or EC50 that approximates it; ≥ and ≤ were set here for values at or beyond the usual limits of such assays. The note with it: source organism: Dengue virus 2 Jamaica/1409/1983.
The target in test [7] is HLA-B*15:01. The test is described as above. The following applies: source organism: Dengue virus 2 Jamaica/1409/1983.
A further test deals with HLA-A*30:02. The description is as above. The note with it: source organism: Dengue virus 2 Jamaica/1409/1983.
Test [8] addresses HLA-B*57:01. The test is described as above. The note with it: source organism: Dengue virus 2 Jamaica/1409/1983.
The target in another test is HLA-B*46:01. Put plainly: IEDB peptide-MHC binding, purified MHC/direct/fluorescence; filed as Kd, often an IC50 or EC50 that approximates it; ≥ and ≤ were set here for values at or beyond the usual limits of such assays. The note with it: source organism: Influenza A virus (A/Viet Nam/HN/2004(H5N1)).
The target of test [9] is HLA-A*01:01. Briefly: IEDB peptide-MHC binding, purified MHC/competitive/fluorescence; filed as Kd, often an IC50 or EC50 that approximates it; ≥ and ≤ were set here for values at or beyond the usual limits of such assays. The following applies: source organism: Homo sapiens.
The mark [10] stands for this setting: source organism: Giardia lamblia ATCC 50803.
The mark [11] stands for this setting: source organism: Vaccinia virus WR.
Setting [12] is: source organism: Marburg virus - Musoke, Kenya, 1980.
The mark [13] stands for this setting: source organism: Mycobacterium tuberculosis.
[14] abbreviates: source organism: Influenza A virus (A/Viet Nam/HN/2004(H5N1)).

By Kd is commonly meant the equilibrium constant for the complex coming apart. As to ETKKRMDYF, the Kd in the test with HLA-B*07:02 (setting [10]), in the test with HLA-B*15:01 [1] (setting [10]), with HLA-B*27:05 (setting [10]), in the test with HLA-A*02:01 [2] (setting [10]), with HLA-A*24:02 (setting [10]) and with HLA-B*40:01 (setting [10]) was at least 20 µM each time. The Kd with HLA-A*03:01 (setting [10]) was at least 20 µM; with HLA-B*58:01 (setting [10]), at least 20 µM; in the test with HLA-B*44:02 (setting [10]), at least 20 µM; in the test with HLA-B*08:01 (setting [10]), 1.56 µM; with HLA-A*01:01 [3] (setting [10]), at least 20 µM.

For FTSSFYNYV, the Kd with HLA-A*02:01 [4] (setting [11]) was 0.0046 µM; in the test with HLA-C*04:01 (setting [11]), at least 20 µM; with HLA-C*12:03 it was at most 0.001 µM; with HLA-C*06:02, 0.089 µM; in the test with HLA-C*15:02 it was 0.019 µM; with HLA-C*08:02 it was 0.818 µM.

Consider GFPSLESSF, for which the Kd with HLA-A*02:06 was 2.92 µM; in the test with HLA-B*35:01 it was 0.877 µM; with HLA-B*15:01 [5] it was at least 20 µM; in the test with HLA-B*18:01 it was 0.263 µM; in the test with HLA-A*26:02 it was at least 20 µM; with HLA-B*08:03 it was at least 20 µM. Moreover, the Kd is 0.0555 µM with HLA-A*23:01; at least 20 µM in the test with HLA-A*26:03; at least 20 µM with HLA-B*15:17; 0.0395 µM in the test with HLA-A*24:03; at least 20 µM with HLA-B*07:02 (setting [12]); at least 20 µM with HLA-A*31:01 (setting [12]). In addition, the Kd was at least 20 µM with HLA-A*02:01 [2] (setting [12]); 0.26 µM with HLA-A*24:02 (setting [12]); at least 20 µM with HLA-A*11:01 (setting [12]); at least 20 µM in the test with HLA-A*68:02; at least 20 µM with HLA-B*58:01 (setting [12]); at least 20 µM in the test with HLA-B*08:01 (source organism: Ravn virus - Ravn, Kenya, 1987). Besides, the Kd in the test with HLA-B*57:01 [6], with HLA-A*01:01 [3] (setting [12]) and in the test with HLA-A*69:01 was at least 20 µM each time.

As for HADDIPVPV, the results for the Kd with HLA-A*02:01 [4] (source organism: Escherichia coli), with HLA-C*04:01 (source organism: Escherichia coli B171) and with HLA-C*05:01 were 0.0649 µM, at least 20 µM and 0.004 µM, respectively.

In turn, IFPSMYFLM displayed a Kd with HLA-A*24:02 (source organism: Entamoeba histolytica HM-1:IMSS) of 0.002 µM.

With KTVCVQATK, the Kd in the test with HLA-A*80:01 (setting [13]) and with HLA-A*01:01 [3] (setting [13]) was at least 20 µM in each case.

In the case of KTWAYHGSY, the Kd stood at 3 µM with HLA-A*80:01 (source organism: dengue virus type 3); 0.00506 µM with HLA-A*32:01; 0.00288 µM with HLA-B*15:01 [7]; 4.05 µM in the test with HLA-A*30:02; 0.00457 µM in the test with HLA-B*57:01 [8].

For RNEQGQTLW, the Kd with HLA-B*07:02 (setting [14]), in the test with HLA-B*15:01 [1] (setting [14]), with HLA-A*31:01 (setting [14]), with HLA-B*27:05 (setting [14]), with HLA-A*02:01 [2] (setting [14]) and with HLA-A*24:02 (setting [14]) was at least 20 µM in each case. Besides, the Kd is at least 20 µM with HLA-B*40:01 (setting [14]); at least 20 µM in the test with HLA-A*11:01 (setting [14]); at least 20 µM with HLA-A*03:01 (setting [14]); at least 20 µM with HLA-B*46:01; 0.0718 µM with HLA-B*58:01 (setting [14]); at least 20 µM with HLA-B*44:02 (setting [14]). Moreover, the equilibrium dissociation constant (Kd) in the test with HLA-B*08:01 (setting [14]) and in the test with HLA-A*01:01 [3] (setting [14]) was at least 20 µM in each case.

For the sequence WVDSTPPPG, the Kd is 11.6 µM in the test with HLA-A*01:01 [9] and at least 20 µM in the test with HLA-A*80:01 (source organism: Homo sapiens).
